{"source": "patent US20220056137A1", "about": "(GIGAGEN, published 2022)", "binders": {"B1": {"name": "antibody A25 (antibody, V domains shown)", "VH": "QVQLVQSGAEVKKPGASVKVSCKASGFTFTSYDINWVRQATGQGLEWMGWMHPKSGITGYAQKFQGRVTMTRNTSISTAYMELSNLSSEDTAVYFCARYNYVSGSYDYWGQGTLVTVSS", "VL": "EIVMTQSPATLSLSPGERATLSCWASQSVSSSYLSWYQQKPGQAPRLLIYGASTRATGIPARFSGSGSGTDFTLTISSLQPEDFAVYYCQQDYYLPYTFGQGTKLEIK", "notes": "Derived from a mutagenesis screen of A1; Tested as full-length antibody; also called L25H25"}}, "key": {"rhPD-L1-Fc": {"target": "T1, rhPD-L1-Fc (human, UniProt Q9NZQ7 19-239, limits assumed)", "T1 construct": "Recombinant human PD-L1-Fc coated on ELISA plates; not shown: Fc part", "T1 sequence (Q9NZQ7 19-239 limits assumed)": "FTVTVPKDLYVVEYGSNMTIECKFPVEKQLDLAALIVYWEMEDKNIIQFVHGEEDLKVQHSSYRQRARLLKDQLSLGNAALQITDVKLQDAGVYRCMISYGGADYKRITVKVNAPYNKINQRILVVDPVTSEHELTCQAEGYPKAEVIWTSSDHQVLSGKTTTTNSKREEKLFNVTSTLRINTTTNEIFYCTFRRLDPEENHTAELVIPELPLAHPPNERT", "test": "competition ELISA: plate-bound rhPD-L1-Fc, antibody titrated, competitor rhCD80-His detected"}, "[1]": {"target": "T2, human PD-L1 protein (soluble) (human, UniProt Q9NZQ7 19-239)", "T2 construct": "also called PD-L1 (R&D Systems); His-tagged PD-L1 protein", "T2 sequence (Q9NZQ7 19-239 limits assumed)": "as above", "test": "BLI (Octet), antibody on AHC biosensor, PD-L1 as analyte", "method": "(§1) For BLI, antibodies were loaded onto an Anti-Human IgG Fc (AHC) biosensor using the Octet Red96 system (ForteBio). Loaded biosensors were dipped into antigen dilutions beginning at 300 nM, with 6 serial dilutions at 1:3. Kinetic analysis was performed using a 1:1 binding model and global fitting."}, "[2]": {"target": "PD-L1 expressed on CHO cells (human, UniProt Q9NZQ7 19-290)", "sequence (Q9NZQ7 19-290 limits assumed)": "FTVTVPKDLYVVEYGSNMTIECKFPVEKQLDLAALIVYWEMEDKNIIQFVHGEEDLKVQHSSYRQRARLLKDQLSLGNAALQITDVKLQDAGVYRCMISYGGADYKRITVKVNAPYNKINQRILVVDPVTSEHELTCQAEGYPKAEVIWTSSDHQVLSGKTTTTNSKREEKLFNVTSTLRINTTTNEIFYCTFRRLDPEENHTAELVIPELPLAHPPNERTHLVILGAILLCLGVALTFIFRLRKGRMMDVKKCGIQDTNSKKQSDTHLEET", "test": "cell-based or functional assay"}, "[3]": {"target": "T2, human PD-L1 protein (soluble)", "test": "BLI (Octet), antibody on AHC biosensor, PD-L1 as analyte", "remark": "listed apart in the source", "method": "as §1"}}, "note": "Like-named read-outs stand apart in the source and are kept apart here."}
{"binder": "B1", "values": [{"measurement": "EC50", "setting": "rhPD-L1-Fc", "result": 0.26, "unit": "µg/mL"}, {"measurement": "Kd", "setting": "[1]", "result": 2.4, "unit": "nM"}, {"measurement": "Promega assay antagonist (EC50, ug/mL)", "setting": "[2]", "result": 0.063, "unit": "µg/mL"}, {"measurement": "Kd", "setting": "[3]", "result": 2.44, "unit": "nM"}, {"measurement": "koff", "setting": "[3]", "result": 0.000809, "unit": "s⁻¹"}, {"measurement": "kon", "setting": "[3]", "result": 331000, "unit": "M⁻¹ s⁻¹"}]}
